This passage reports koff and kon results from article PMC12649849.

The target of the experiment is Protein A on the ProA BLI sensor (Staphylococcus aureus) (UniProt P38507). Nature of the experiment: BLI.

“ChromPure mouse IgG (whole molecule) (antibody)” had a koff of 0.00121 s⁻¹ and an association rate constant (kon) of 92500 M⁻¹ s⁻¹.
